The data set relates to ATP. The data set is described as follows: switch fluorescence ratio, 500 uM ATP over buffer (Cy3 cluster intensity, sum of 5 cycles each) (fold (ratio)); higher = stronger signal-on switching upon ATP binding; sequences stand for … in TCGTCGGCAGCGTCAGATGTGTATAAGAGACAGTTTTTTTTTTTTTTTTTTTTTTTTT…TC. The note with it: aptamer strand: ATP DNA aptamer (quencher-CACCTGGGGGAGTATTGCGGAGGAAGG + anchor), 100 nM annealed; ATP concentration: 500 uM. In short, it runs like this: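 After annealing to 100 nM quencher-labelled ATP aptamer, Cy3-labelled switching-strand clusters on a modified Illumina MiSeq flow-cell were imaged in selection buffer. A second image followed after 15 min with 500 uM ATP at 22 °C, and five such buffer/ATP cycles were done, each separated by NaOH stripping and re-annealing. The fluorescence ratio, averaged per switch-domain sequence, is summed target-cycle over summed buffer-cycle Cy3 intensity per cluster, with clusters outside 100-1000 RFU excluded.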

Drawing on the supplement of paper PMC10126150, this text covers switch fluorescence ratio for 120 sequences.

± gives the standard deviation of the averaged measurements.
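Also: ATP exposure 15 min at 22 °C before imaging.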

Regarding TGTTGCTGGG, the switch fluorescence ratio was 1 ± 0.026.

Take TGTTGGCAGG: the switch fluorescence ratio came out at 1.02 ± 0.012.

On to TGTTGGGAAC, for which the switch fluorescence ratio came to 1.07 ± 0.12.

Turning to TGTTGGGATT, the switch fluorescence ratio came to 0.998 ± 0.016.

Regarding TGTTGGGGCT, the switch fluorescence ratio came out at 0.999 ± 0.04.

With TGTTGGTATG, the switch fluorescence ratio is 0.976 ± 0.038.

On to TGTTGGTGGT, for which the switch fluorescence ratio amounted to 0.988 ± 0.036.

With TGTTGTAAGT, the switch fluorescence ratio amounted to 0.984 ± 0.026.

For TGTTGTAGAA, the switch fluorescence ratio is 0.973 ± 0.013.

As for TGTTGTAGTC, the switch fluorescence ratio stood at 0.965 ± 0.017.

Consider TGTTGTGGTC, for which the switch fluorescence ratio amounted to 0.9804 ± 0.0042.

Regarding TGTTGTGTTT, the switch fluorescence ratio is 0.989 ± 0.033.

As for TGTTGTTACC, the switch fluorescence ratio is 1.04 ± 0.022.

On to TGTTTAAGGG, for which the switch fluorescence ratio stood at 1 ± 0.021.

As for TGTTTATCAT, the switch fluorescence ratio came to 0.978 ± 0.017.

For TGTTTATTTT, the switch fluorescence ratio came to 0.982 ± 0.025.

Turning to TGTTTCATTC, the switch fluorescence ratio worked out at 0.978 ± 0.012.

As for TGTTTCCCGT, the switch fluorescence ratio was determined as 1 ± 0.022.

Take TGTTTCTACG: the switch fluorescence ratio was 1 ± 0.056.

As for TGTTTGACGA, the switch fluorescence ratio is 0.991 ± 0.05.

Regarding TGTTTGAGAT, the switch fluorescence ratio amounted to 1.01 ± 0.015.

Take TGTTTGAGGC: the switch fluorescence ratio was 0.997 ± 0.044.

For TGTTTGATAT, the switch fluorescence ratio turned out to be 0.9917 ± 0.005.

As for TGTTTGGGCC, the switch fluorescence ratio was determined as 1.03 ± 0.011.

For the sequence TGTTTGGTGT, the switch fluorescence ratio stood at 0.9948 ± 0.005.

On to TGTTTGTGTT, for which the switch fluorescence ratio amounted to 0.977 ± 0.013.

In the case of TGTTTGTTAG, the switch fluorescence ratio is 1.04 ± 0.048.

TGTTTTAAGT: the switch fluorescence ratio stood at 0.999 ± 0.036.

Turning to TGTTTTAATT, the switch fluorescence ratio is 0.99 ± 0.021.

Take TGTTTTACGA: the switch fluorescence ratio was found to be 1.07 ± 0.043.

On to TGTTTTAGGA, for which the switch fluorescence ratio is 0.993 ± 0.015.

As to TGTTTTGCGG, the switch fluorescence ratio amounted to 0.9696 ± 0.0063.

In the case of TGTTTTGGAG, the switch fluorescence ratio stood at 1 ± 0.032.

TGTTTTGGGC: the switch fluorescence ratio stood at 0.992 ± 0.033.

On to TGTTTTGTGT, for which the switch fluorescence ratio was 1.035 ± 0.0073.

For TGTTTTGTTT, the switch fluorescence ratio was found to be 0.995 ± 0.013.

On to TGTTTTTAAA, for which the switch fluorescence ratio came out at 0.979 ± 0.029.

Turning to TGTTTTTAAG, the switch fluorescence ratio came out at 0.99 ± 0.022.

As for TGTTTTTAGC, the switch fluorescence ratio turned out to be 1.0151 ± 0.00055.

Turning to TGTTTTTGGC, the switch fluorescence ratio came out at 1 ± 0.025.

TGTTTTTTGA: the switch fluorescence ratio worked out at 0.99 ± 0.011.

On to TTAAAAAAAG, for which the switch fluorescence ratio was 1.01 ± 0.019.

Consider TTAAAAAGG, for which the switch fluorescence ratio was determined as 1.02 ± 0.037.

TTAAAAAGTT: the switch fluorescence ratio amounted to 1 ± 0.031.

TTAAAAATTG: the switch fluorescence ratio turned out to be 0.957 ± 0.016.

TTAAAACCGT: the switch fluorescence ratio was 1.02 ± 0.029.

Turning to TTAAAACGAA, the switch fluorescence ratio stood at 1.01 ± 0.024.

As for TTAAAACGGG, the switch fluorescence ratio is 0.969 ± 0.037.

For the sequence TTAAAATATC, the switch fluorescence ratio was 0.99948 ± 0.00018.

In the case of TTAAAATTAT, the switch fluorescence ratio came out at 0.996 ± 0.023.

As for TTAAACAAGC, the switch fluorescence ratio was 0.998 ± 0.017.

In the case of TTAAACCTGG, the switch fluorescence ratio was 1.08 ± 0.032.

As for TTAAACTGGT, the switch fluorescence ratio worked out at 1.04 ± 0.034.

Take TTAAACTTTT: the switch fluorescence ratio was found to be 1.04 ± 0.031.

Consider TTAAAGACCT, for which the switch fluorescence ratio was 1.45 ± 0.042.

As to TTAAAGCTGG, the switch fluorescence ratio came out at 0.978 ± 0.017.

For TTAAAGCTGT, the switch fluorescence ratio came to 1.02 ± 0.063.

Turning to TTAAAGCTTT, the switch fluorescence ratio amounted to 1.09 ± 0.22.

With TTAAAGGATC, the switch fluorescence ratio stood at 0.968 ± 0.028.

For TTAAAGGGCT, the switch fluorescence ratio was determined as 0.982 ± 0.044.

Take TTAAAGTCTC: the switch fluorescence ratio came to 0.946 ± 0.021.

TTAAATAAGT: the switch fluorescence ratio was found to be 1 ± 0.025.

With TTAAATAATA, the switch fluorescence ratio is 1.09 ± 0.16.

Take TTAAATACGT: the switch fluorescence ratio worked out at 1.06 ± 0.049.

Take TTAAATGAAA: the switch fluorescence ratio was found to be 1.02 ± 0.013.

As to TTAAATGGTT, the switch fluorescence ratio stood at 0.9783 ± 0.0076.

In the case of TTAACCGATA, the switch fluorescence ratio worked out at 1.04 ± 0.031.

With TTAACGAGTG, the switch fluorescence ratio came out at 0.999 ± 0.022.

For the sequence TTAACGATGA, the switch fluorescence ratio was determined as 1.01 ± 0.044.

Consider TTAACGGAGA, for which the switch fluorescence ratio worked out at 1.039 ± 0.0084.

Take TTAACGGTAA: the switch fluorescence ratio is 1.09 ± 0.042.

As to TTAACTACCG, the switch fluorescence ratio stood at 1.042 ± 0.0084.

As for TTAACTCGAC, the switch fluorescence ratio worked out at 1.07 ± 0.038.

Consider TTAAGAACAC, for which the switch fluorescence ratio is 1.04 ± 0.037.

TTAAGAATTA: the switch fluorescence ratio was found to be 1.03 ± 0.047.

Consider TTAAGACTTC, for which the switch fluorescence ratio is 1.02 ± 0.041.

In the case of TTAAGAGGTT, the switch fluorescence ratio came out at 0.9708 ± 0.0065.

Turning to TTAAGATAGT, the switch fluorescence ratio came to 1.02 ± 0.028.

Consider TTAAGATTTC, for which the switch fluorescence ratio came out at 1.13 ± 0.14.

For TTAAGCATAG, the switch fluorescence ratio came to 1.69 ± 0.91.

Regarding TTAAGCCTGG, the switch fluorescence ratio stood at 0.962 ± 0.022.

Turning to TTAAGCGTTT, the switch fluorescence ratio was found to be 0.9948 ± 0.009.

On to TTAAGCTGGC, for which the switch fluorescence ratio came out at 1.05 ± 0.056.

With TTAAGGACTC, the switch fluorescence ratio worked out at 1.1 ± 0.042.

In the case of TTAAGGCCAT, the switch fluorescence ratio was found to be 1.08 ± 0.13.

Consider TTAAGGCCCG, for which the switch fluorescence ratio was found to be 1.01 ± 0.012.

Turning to TTAAGGCGGG, the switch fluorescence ratio is 1 ± 0.05.

Consider TTAAGGGATA, for which the switch fluorescence ratio worked out at 1.03 ± 0.082.

For TTAAGGGCTC, the switch fluorescence ratio came to 1 ± 0.013.

Consider TTAAGGGGGC, for which the switch fluorescence ratio was 0.969 ± 0.042.

Consider TTAAGGTTAT, for which the switch fluorescence ratio worked out at 1.02 ± 0.032.

As to TTAAGTAATA, the switch fluorescence ratio came out at 1.02 ± 0.014.

As to TTAAGTAGTG, the switch fluorescence ratio is 0.98 ± 0.014.

Take TTAAGTATGT: the switch fluorescence ratio stood at 1.08 ± 0.089.

As to TTAAGTCTAT, the switch fluorescence ratio came out at 0.9889 ± 0.0078.

TTAAGTGGGC: the switch fluorescence ratio worked out at 1.12 ± 0.17.

Consider TTAAGTTATA, for which the switch fluorescence ratio was determined as 1.018 ± 0.0099.

As to TTAAGTTATT, the switch fluorescence ratio stood at 1.03 ± 0.056.

TTAAGTTGGG: the switch fluorescence ratio stood at 0.989 ± 0.038.

As for TTAATAAATT, the switch fluorescence ratio turned out to be 1.03 ± 0.018.

Turning to TTAATAGCGT, the switch fluorescence ratio was 0.999 ± 0.029.

Turning to TTAATAGGCC, the switch fluorescence ratio was determined as 0.974 ± 0.036.

As to TTAATAGTTA, the switch fluorescence ratio came out at 0.992 ± 0.028.

In the case of TTAATATAAG, the switch fluorescence ratio came to 1.02 ± 0.021.

Take TTAATCGCTC: the switch fluorescence ratio came out at 1.02 ± 0.021.

As for TTAATCGGGG, the switch fluorescence ratio came to 1.05 ± 0.077.

For the sequence TTAATCGTAG, the switch fluorescence ratio came out at 0.991 ± 0.013.

In the case of TTAATCTGTA, the switch fluorescence ratio came out at 0.99 ± 0.068.

TTAATGAATT: the switch fluorescence ratio was determined as 0.994 ± 0.014.

As for TTAATGATTT, the switch fluorescence ratio is 1 ± 0.034.

Consider TTAATGGAGG, for which the switch fluorescence ratio was found to be 1.04 ± 0.017.

On to TTAATGTCCT, for which the switch fluorescence ratio worked out at 1 ± 0.02.

In the case of TTAATTAAAG, the switch fluorescence ratio turned out to be 0.993 ± 0.017.

As for TTAATTCATT, the switch fluorescence ratio came to 1.01 ± 0.016.

As for TTAATTGCGA, the switch fluorescence ratio amounted to 0.9861 ± 0.0048.

TTAATTGCTT: the switch fluorescence ratio is 1.01 ± 0.043.

TTAATTTATT: the switch fluorescence ratio came out at 0.987 ± 0.035.

For the sequence TTAATTTTCG, the switch fluorescence ratio was 1.04 ± 0.066.

For TTAATTTTCT, the switch fluorescence ratio was determined as 1.04 ± 0.033.

As for TTACAAAGGA, the switch fluorescence ratio is 0.999 ± 0.017.
